{"source": "patent US9803013B2", "about": "“Biological materials and uses thereof” (BioInvent International AB, priority 2005, dated 2017)", "key": {"[1]": {"tested_on": "mouse, rat, rabbit, and cynomolgus monkey ICAM-1", "experiment": "BI-505 cross-reactivity to ICAM-1 of animal species used for toxicological studies", "type": "binding", "details": "animals commonly used for toxicological evaluation", "text": "The cross reactivity of BI-505 to mouse, rat, rabbit, and cynomolgus monkey ICAM-1 was investigated using several methods (i.e. immunohistochemistry, flow cytometry, and enzyme-linked immunosorbent assay [ELISA]) and sources of target protein (tissue, ICAM-1 transfected cells, endogenous ICAM-1 expressing cells, and recombinant ICAM-1 protein). Polyclonal anti-mouse ICAM-1, anti-rat ICAM-1, anti-rabbit ICAM-1, and anti-cynomolgus ICAM-1 antibodies were used as positive controls in experiments. Isotype control human IgG1 was used as negative control for BI-505 and species matched polyclonal IgG lacking specificity for ICAM-1 served as negative controls for ICAM-1 specific polyclonal antibodies."}, "PC-3 cells": {"tested_on": "PC-3 cells", "experiment": "Apoptosis induction in carcinoma cells (cross-linked IgG, 16-24 hours, Annexin V/PI)", "type": "cell-based, human", "details": "PC-3, cross-linked IgG", "method": "(§1) The prostate carcinoma cell line PC-3 was grown in Complete Growth Medium (RPMI 1640, supplemented with 10% FCS, 10 mM HEPES, and 2 mM L-Glutamine) to 80% confluency in a 6 well plate. The prostate carcinoma cell line DU145 was grown in MEM with Earl's salts, supplemented with 10% FCS, 1 mM sodium pyruvate, and 1 mM non-essential amino acids and the derivate of a melanoma cell line MDA MB 435 was grown in DMEM supplemented with 10% FCS.\nFor apoptosis assays cells were washed in PBS and serially diluted B11 IgG1 (or B1 IgG1, Trastuzumab or negative antibody control for controls) was added to individual wells and binding was allowed during a 1-2 h incubation at 4° C. The cells were washed and Complete Growth Medium was added, containing cross-linking antibody, Fab′2 Goat anti-Human Fab′2, at 10 μg/ml. Cells were incubated in a humidified atmosphere, with 5% CO2 at 37° C., for 16-24 hours. […] The percentage apoptotic cells was determined by the formula: % apoptotic cells=100−% AF488−AV/PI−/−.\nCells were seeded in 6 well plates with Complete Growth Medium three days before the onset of the experiment. […] Cells were washed in ice-cold PBS, subjected to Annexin V/propidium iodide staining, and analysed for viability/apoptosis as described in example 5 above."}, "CL-01 B lymphoma cells": {"tested_on": "CL-01 B lymphoma cells", "experiment": "Mitochondrial membrane depolarisation assay (JC-1)", "type": "cell-based, human", "details": "CL-01, JC-1 staining, 2 μg/ml IgG cross-linked, 6 h", "method": "FIG. 4A. […] Cells were incubated at 37° C. for 6 h and the effect of the antibody incubation was determined by two independent apoptosis assays. Cells were stained either by AV/PI (upper panel), similarly as described above, or by incubation with 5 μg/ml of the mitochondrial membrane depolarisation reagent JC-1 for 30 min at RT (lower panel). Induction of apoptosis is detectable by a decrease in the red (y-axis)/green (x-axis) fluorescence intensity ratio. (FIG. 4B) Histology section showing representative binding of B11 antibody to B lymphoma tissue. Cryo-preserved tissue obtained from a patient with Anaplastic Large Cell B Lymphoma was stained with B11 or FITC-8 (control) scFv antibody. Antibody binding was detected with DAB (brown colour). […] IgG B11 binding to the different cell populations was recorded in the FL4 channel.\nMitochondrial membrane depolarisation was analysed as previously described (Kim et al., Mol. Biol. Cell (2004) 15:420-434). […] Cells were washed twice in ice-cold PBS and resuspended in […] PBS and analysed on a FACS Aria (BD Biosciences). The green and red fluorescence was collected through 494/518 nm (FL-1) and 595/615 nm (FL-2) bandpass filters, respectively. […]"}, "[2]": {"tested_on": "panel of ICAM-1-expressing tumor cell lines", "experiment": "CDC", "type": "cell-based", "details": "human serum", "method": "Target cells were harvested as described above (under ADCC heading) and incubated with antibodies at 5 μg/mL for 60 min on ice and then washed. Human serum, normal or heat-inactivated (Sigma, Sweden), was added to tubes and the samples were incubated for 2 hr at 37° C. After completion of incubation, ToPo-Pro-3 (Invitrogen) was added at a final concentration of 0.3 μM and cells were analyzed for membrane permeabilization using flow cytometry."}, "MDA MB 435 cells": {"tested_on": "MDA MB 435 cells", "experiment": "Apoptosis induction in carcinoma cells (cross-linked IgG, 16-24 hours, Annexin V/PI)", "type": "cell-based, human", "details": "MDA MB 435, cross-linked IgG", "method": "as §1\n(§2) For apoptosis assays cells were washed in PBS and serially diluted B11 IgG1 (or B1 IgG1, Trastuzumab or negative antibody control for controls) was added to individual wells and binding was allowed during a 1-2 h incubation at 4° C. The cells were washed and Complete Growth Medium was added, containing cross-linking antibody, Fab′2 Goat anti-Human Fab′2, at 10 μg/ml. Cells were incubated in a humidified atmosphere, with 5% CO2 at 37° C., for 16-24 hours. Cells were collected by trypsination and stained with Alexa Fluor 488-Annexin V (AF488-AV) and propidium iodide (PI), according to manufacturer's instructions. The percentage apoptotic cells was determined by the formula: % apoptotic cells=100−% AF488−AV/PI−/−.\n(§3) Cells were seeded in 6 well plates with Complete Growth Medium three days before the onset of the experiment."}, "DU145 cells": {"tested_on": "DU145 cells", "experiment": "Apoptosis induction in carcinoma cells (cross-linked IgG, 16-24 hours, Annexin V/PI)", "type": "cell-based, human", "method": "as §1, §2, §3"}}}
{"molecule": "B11: fully human IgG1 antibody specific for ICAM-1; VH and VL sequences of FIG. 10 (SEQ ID NOs. 6 and 8) (antibody, listed as Homo sapiens, V domains shown) VH: EVQLLESGGGLVQPGGSLRLSCAASGFTFSNAWMSWVRQAPGKGLEWVAFIWYDGSNKYYADSVKGRFTISRDNSKNTLYLQMNSLRAEDTAVYYCARYSGWYFDYWGQGTLVTVSS VL: QSVLTQPPSASGTPGQRVTISCTGSSSNIGAGYDVHWYQQLPGTAPKLLIYDNNNRPSGVPDRFSGSKSGTSASLAISGLRSEDEADYYCQSYDSSLSAWLFGGGTKLTVLG", "values": [{"measurement": "cross-reactivity with animal ICAM-1", "setting": "[1]", "result": "does not, however, cross-react"}, {"measurement": "Apoptosis Induction", "setting": "PC-3 cells", "result": "induce apoptosis"}, {"measurement": "mitochondrial membrane depolarisation", "setting": "CL-01 B lymphoma cells", "result": "induce mitochondrial membrane depolarisation"}, {"measurement": "CDC", "setting": "[2]", "result": "did not induce CDC"}, {"measurement": "Apoptosis Induction", "setting": "MDA MB 435 cells", "result": "induce apoptosis"}, {"measurement": "Apoptosis Induction", "setting": "DU145 cells", "result": "induce apoptosis"}]}
